Test results taken from patent publication US20240209076A1 (KODIAK SCIENCES, published 2024).
Changes are numbered by the printed parent chain. Numbers in names are those of the source.

B1: anti-IL-6 antibody, heavy chain A49T, light chain WT (antibody, IgG1, V domains shown)
VH: EVQLVESGGGLVQPGGSLRLSCAASGFTFSPFAMSWVRQAPGKGLEWVTKISPGGSWTYYSDTVTGRFTFSLDTSKSTAYLQMNSLRAEDTAVYYCARQLWGYYALDIWGQGTLVTVSS
VL: DIQLTQSPSSLSASVGDRVTITCSASISVSYMYWYQQKPGKAPKLLIYDMSNLASGVPSRFSGSGSGTDFTLTISSLQPEDFATYYCMQWSGYPYTFGQGTKVEIK
notes: Full IgG1 tested; V domains derived as in m2
B2: anti-IL-6 antibody, heavy chain T28K, light chain WT (antibody, IgG1, V domains shown)
VH: B1 VH with T28K, T49A
VL: B1 VL
notes: as for B1
B3: anti-IL-6 antibody, heavy chain R98G, light chain WT (antibody, IgG1, V domains shown)
VH: B1 VH with T49A, R98G
VL: B1 VL
notes: as for B1
B4: anti-IL-6 antibody, heavy chain F27G, light chain WT (antibody, IgG1, V domains shown)
VH: B1 VH with F27G, T49A
VL: B1 VL
notes: as for B1
B5: anti-IL-6 antibody, heavy chain T28E, light chain WT (antibody, IgG1, V domains shown)
VH: B1 VH with T28E, T49A
VL: B1 VL
notes: as for B1
B6: anti-IL-6 antibody, heavy chain A105H, light chain WT (antibody, IgG1, V domains shown)
VH: B1 VH with T49A, A105H
VL: B1 VL
notes: as for B1
B7: anti-IL-6 antibody, heavy chain F27P, light chain WT (antibody, IgG1, V domains shown)
VH: B1 VH with F27P, T49A
VL: B1 VL
notes: as for B1
B8: anti-IL-6 antibody, heavy chain G102D, light chain WT (antibody, IgG1, V domains shown)
VH: B1 VH with T49A, G102D
VL: B1 VL
notes: as for B1
B9: anti-IL-6 antibody, heavy chain S56H, light chain WT (antibody, IgG1, V domains shown)
VH: B1 VH with T49A, S56H
VL: B1 VL
notes: as for B1
B10: anti-IL-6 antibody, heavy chain S35H, light chain WT (antibody, IgG1, V domains shown)
VH: B1 VH with S35H, T49A
VL: B1 VL
notes: as for B1
B11: anti-IL-6 antibody, heavy chain S30Y, light chain WT (antibody, IgG1, V domains shown)
VH: B1 VH with S30Y, T49A
VL: B1 VL
notes: as for B1
B12: anti-IL-6 antibody, heavy chain F27V, light chain WT (antibody, IgG1, V domains shown)
VH: B1 VH with F27V, T49A
VL: B1 VL
notes: as for B1
B13: anti-IL-6 antibody, heavy chain S56R, light chain WT (antibody, IgG1, V domains shown)
VH: B1 VH with T49A, S56R
VL: B1 VL
notes: as for B1
B14: anti-IL-6 antibody, heavy chain L106I, light chain WT (antibody, IgG1, V domains shown)
VH: B1 VH with T49A, L106I
VL: B1 VL
notes: as for B1
B15: anti-IL-6 antibody, heavy chain Q99H, light chain WT (antibody, IgG1, V domains shown)
VH: B1 VH with T49A, Q99H
VL: B1 VL
notes: as for B1
B16: anti-IL-6 antibody, heavy chain F27R, light chain WT (antibody, IgG1, V domains shown)
VH: B1 VH with F27R, T49A
VL: B1 VL
notes: as for B1
B17: anti-IL-6 antibody, heavy chain S35Q, light chain WT (antibody, IgG1, V domains shown)
VH: B1 VH with S35Q, T49A
VL: B1 VL
notes: as for B1
B18: anti-IL-6 antibody, heavy chain T28Y, light chain WT (antibody, IgG1, V domains shown)
VH: B1 VH with T28Y, T49A
VL: B1 VL
notes: as for B1
B19: anti-IL-6 antibody, heavy chain A105Q, light chain WT (antibody, IgG1, V domains shown)
VH: B1 VH with T49A, A105Q
VL: B1 VL
notes: as for B1
B20: anti-IL-6 antibody, heavy chain T28A, light chain WT (antibody, IgG1, V domains shown)
VH: B1 VH with T28A, T49A
VL: B1 VL
notes: as for B1
B21: anti-IL-6 antibody, heavy chain S61A, light chain WT (antibody, IgG1, V domains shown)
VH: B1 VH with T49A, S61A
VL: B1 VL
notes: as for B1
B22: anti-IL-6 antibody, heavy chain S30G, light chain WT (antibody, IgG1, V domains shown)
VH: B1 VH with S30G, T49A
VL: B1 VL
notes: Full IgG1 tested; V domains derived as in m2; also called S30G (heavy chain)
B23: anti-IL-6 antibody, heavy chain A97V, light chain WT (antibody, IgG1, V domains shown)
VH: B1 VH with T49A, A97V
VL: B1 VL
notes: as for B1
B24: anti-IL-6 antibody, heavy chain D62F, light chain WT (antibody, IgG1, V domains shown)
VH: B1 VH with T49A, D62F
VL: B1 VL
notes: as for B1
B25: anti-IL-6 antibody, heavy chain F27S, light chain WT (antibody, IgG1, V domains shown)
VH: B1 VH with F27S, T49A
VL: B1 VL
notes: as for B1
B26: anti-IL-6 antibody, heavy chain S61R, light chain WT (antibody, IgG1, V domains shown)
VH: B1 VH with T49A, S61R
VL: B1 VL
notes: as for B1
B27: anti-IL-6 antibody, heavy chain S30W, light chain WT (antibody, IgG1, V domains shown)
VH: B1 VH with S30W, T49A
VL: B1 VL
notes: as for B1
B28: anti-IL-6 antibody, heavy chain Q99A, light chain WT (antibody, IgG1, V domains shown)
VH: B1 VH with T49A, Q99A
VL: B1 VL
notes: as for B1

What follows are binders tested against T1, recombinant human IL-6 (human, UniProt P05231 30-212) (assay: SPR (Biacore), supernatant IgG on Protein A, 25 C).
T1 construct: Flowed in solution over the captured antibodies
Method: Antibodies were captured on a Protein A chip (GE) by injecting 1:20 dilution of cell supernatant at 10 μL/min for 60 seconds. […] The sensor chip was regenerated by a 60 seconds injection of 10 mM Glycine pH 1.7 at flow rate of 50 μL/min. […] For this setup, 1 μg/mL of purified antibody was injected over a Protein A chip at 10 μL/min for 25-28 seconds. Data analysis for supernatant and purified samples were performed using BIAevaluation software (GE). All sensorgrams were double reference subtracted and fit using a 1:1 Langmuir binding model.

T1 sequence (P05231 30-212 limits assumed): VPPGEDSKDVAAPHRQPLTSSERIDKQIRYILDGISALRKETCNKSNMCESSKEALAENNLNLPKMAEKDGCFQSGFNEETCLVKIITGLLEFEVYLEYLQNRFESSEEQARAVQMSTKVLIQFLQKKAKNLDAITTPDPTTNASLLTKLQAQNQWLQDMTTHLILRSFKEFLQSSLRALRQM

Row | Binder | Kd [pM] | koff [s⁻¹] | kon [M⁻¹ s⁻¹]
1 | B1 | 337 | 0.000151 | 448000
2 | B2 | 370 | 0.000143 | 386000
3 | B3 | 1420 | 0.000251 | 176000
4 | B4 | 240 | 0.000206 | 856000
5 | B5 | 347 | 0.000163 | 469000
6 | B6 | 1790 | 0.000723 | 404000
7 | B7 | 344 | 0.000196 | 570000
8 | B8 | 1330 | 0.0006 | 452000
9 | B9 | 452 | 0.000161 | 356000
10 | B10 | 379 | 0.000132 | 348000
11 | B11 | 334 | 0.000122 | 365000
12 | B12 | 442 | 0.000208 | 470000
13 | B13 | 567 | 0.000155 | 273000
14 | B14 | 279 | 0.000134 | 479000
15 | B15 | 1940 | 0.00105 | 539000
16 | B16 | 415 | 0.000209 | 503000
17 | B17 | 346 | 0.00013 | 375000
18 | B18 | 412 | 0.000137 | 332000
19 | B19 | 1040 | 0.000493 | 474000
20 | B20 | 354 | 0.000139 | 393000
21 | B21 | 394 | 0.000149 | 379000
22 | B22 | 333 | 0.000132 | 398000
23 | B23 | 574 | 0.000179 | 311000
24 | B24 | 350 | 0.000147 | 420000
25 | B25 | 278 | 0.000203 | 731000
26 | B26 | 467 | 0.000162 | 348000
27 | B27 | 376 | 0.000157 | 417000
28 | B28 | 2000 | 0.000737 | 368000
